Data reported in the supplement of paper PMC10567573.

Test: protein stability index of a GFP-peptide fusion (GPS, HEK-293T) (PSI 1-6); higher = more stable
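Note: lentivirally expressed fusions sorted by FACS into six bins by GFP to DsRed ratio, PSI derived from sequencing read proportions per bin multiplied by bin number.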

B1: ZNF649 WT (peptide)
chain: DECEKAYFYMSCLVKHKRIHSREK
B1 gave a protein stability index (parent: IOH7272_73, c terminus: a fixed tail appended) of 2.53.

B2: SMARCE1 WT (peptide)
chain: YHNSPAYLAYINAKSRAEAALEEE
For B2, the protein stability index (parent: IOH7424_23, c terminus: a fixed tail appended) was 2.1.

B3: VAMP4 WT (peptide)
chain: FLRGPSGPRFGPRNDKIKHVQNQV
Work on B3 yielded a protein stability index (parent: IOH7463_7, c terminus: a fixed tail appended) of 2.7.

B4: VAMP4 WT (peptide)
chain: IMALVAAILLLVIIILIVMKYRT
For B4, the protein stability index (parent: IOH7463_24, c terminus: native) was 2.83.

B5: SNX3 WT (peptide)
chain: FLRQLPFRGDDGIFDDNFIEERKQ
B5 showed a protein stability index (parent: IOH7529_17, c terminus: a fixed tail appended) of 3.4.

B6: IKZF1 WT (peptide)
chain: HIKLHSGEKPFKCHLCNYACRRRD
B6 gave a protein stability index (parent: IOH9679_28, c terminus: a fixed tail appended) of 1.92.

B7: IKZF1 WT (peptide)
chain: RDPFECNMCGYHSQDRYEFSSHIT
Work on B7 yielded a protein stability index (parent: IOH9679_75, c terminus: a fixed tail appended) of 1.89.

B8: IKZF1 WT (peptide)
chain: YHSQDRYEFSSHITRGEHRFHMS
Protein B8 has a protein stability index (parent: IOH9679_77, c terminus: native) of 2.09.

B9: RAB22A WT (peptide)
chain: FVEDSFDPNINPTIGASFMTKTVQ
B9 showed a protein stability index (parent: IOH10004_5, c terminus: a fixed tail appended) of 2.26.

B10: TIA1 WT (peptide)
chain: TYECRCIGEEKEMWNFGEKYARF
With B10 the protein stability index (parent: IOH10042_33, c terminus: native) was 1.9.

B11: SPSB1 WT (peptide)
chain: DMRDPTYRPLKQELQGLDYCKPTR
B11 showed a protein stability index (parent: IOH10100_3, c terminus: a fixed tail appended) of 3.17.

B12: FAM107A WT (peptide)
chain: HRRGLGVDSKPELQRVLEHRRRNQ
For B12, the protein stability index (parent: IOH10203_10, c terminus: a fixed tail appended) was 3.91.

B13: FAM107A WT (peptide)
chain: LQRVLEHRRRNQLIKKKKEELEAK
For B13, the protein stability index (parent: IOH10203_12, c terminus: a fixed tail appended) was 3.41.

B14: TRIM43 WT (peptide)
chain: FCDMDKSLLCLLCSNSQEHGAHKH
Work on B14 yielded a protein stability index (parent: IOH10304_18, c terminus: a fixed tail appended) of 1.87.

B15: TRIM43 WT (peptide)
chain: RAQMIRNEYRKLHPVLHKEEKQHL
Work on B15 yielded a protein stability index (parent: IOH10304_30, c terminus: a fixed tail appended) of 3.05.

B16: TRIM43 WT (peptide)
chain: YQEIFQQLQRSWVKMDQKSKHLKE
Work on B16 yielded a protein stability index (parent: IOH10304_35, c terminus: a fixed tail appended) of 2.05.

B17: TRIM43 WT (peptide)
chain: NRFRVEISFHFEVTNHNIRLFEDV
Work on B17 yielded a protein stability index (parent: IOH10304_48, c terminus: a fixed tail appended) of 2.93.

B18: TRIM43 WT (peptide)
chain: NNSWIRKNSTMVNSEDIFLLLCLK
In the case of B18, the protein stability index (parent: IOH10304_60, c terminus: a fixed tail appended) is reported as 2.69.

B19: ETS2 WT (peptide)
chain: TSGKRYVYRFVCDLQNLLGFTPEE
In the case of B19, the protein stability index (parent: IOH10422_73, c terminus: a fixed tail appended) is reported as 2.7.

B20: RTP4 WT (peptide)
chain: AFGWFRCSSCQRSWASAQVQILCH
B20 gave a protein stability index (parent: IOH10686_9, c terminus: a fixed tail appended) of 2.29.

B21: RTP4 WT (peptide)
chain: TYWEHWTSQGQVRMRLFGQRCQKC
Protein B21 has a protein stability index (parent: IOH10686_13, c terminus: a fixed tail appended) of 1.83.

B22: ESR2 WT (peptide)
chain: KSCQACRLRKCYEVGMVKCGSRRE
B22 gave a protein stability index (parent: IOH10714_34, c terminus: a fixed tail appended) of 1.85.

B23: ZBTB22 WT (peptide)
chain: AVLAASSPYFHDQVLLKGMTSISL
With B23 the protein stability index (parent: IOH10718_13, c terminus: a fixed tail appended) was 2.63.

B24: ZBTB22 WT (peptide)
chain: FSSSSQEAFAASAVGSGERRGGGP
B24 gave a protein stability index (parent: IOH10718_37, c terminus: a fixed tail appended) of 3.33.

B25: ZBTB22 WT (peptide)
chain: RPFDCPVCNKKFKMKHHLTEHMKT
Work on B25 yielded a protein stability index (parent: IOH10718_86, c terminus: a fixed tail appended) of 2.37.

B26: ZBTB22 WT (peptide)
chain: HTGLKPYECGVCAKKFMWRDSFMR
Work on B26 yielded a protein stability index (parent: IOH10718_90, c terminus: a fixed tail appended) of 2.3.

B27: C19orf51 WT (peptide)
chain: FAPQTGARPSETFARFCKSQESAL
For B27, the protein stability index (parent: IOH10770_74, c terminus: a fixed tail appended) was 2.22.
